Measured values as given in article doi:10.1101/2020.10.05.326918 (bioRxiv, 2020).
Each block holds one binder with its values, some of them ahead of it.

Assays:
Assay in all cases: cryo-EM structure
MED20 = target: T1, MED20 (Mus musculus (endogenous in CH12 cells), UniProt Q9R0X0 1-212)
T1 sequence (looked up): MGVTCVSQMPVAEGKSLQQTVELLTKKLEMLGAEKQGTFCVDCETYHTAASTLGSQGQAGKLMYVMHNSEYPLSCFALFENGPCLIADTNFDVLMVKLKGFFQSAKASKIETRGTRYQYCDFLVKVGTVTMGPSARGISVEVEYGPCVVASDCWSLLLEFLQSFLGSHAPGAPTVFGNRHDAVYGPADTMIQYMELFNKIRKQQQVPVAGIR

MED27 = target: T2, MED27 (Mus musculus (endogenous in CH12 cells), UniProt Q9DB40 1-311)
T2 sequence (looked up): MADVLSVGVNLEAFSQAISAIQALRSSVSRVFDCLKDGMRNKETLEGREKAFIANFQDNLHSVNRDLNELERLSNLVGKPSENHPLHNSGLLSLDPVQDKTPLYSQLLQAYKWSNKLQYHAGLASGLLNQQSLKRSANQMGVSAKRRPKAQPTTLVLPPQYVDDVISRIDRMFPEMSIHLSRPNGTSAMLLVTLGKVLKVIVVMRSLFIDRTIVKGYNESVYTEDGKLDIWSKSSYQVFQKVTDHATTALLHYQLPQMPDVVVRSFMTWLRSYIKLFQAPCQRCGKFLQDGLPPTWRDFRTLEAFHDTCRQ

MED17 = target: T3, MED17 (Mus musculus (endogenous in CH12 cells), UniProt Q8VCD5 1-649)
T3 sequence (looked up): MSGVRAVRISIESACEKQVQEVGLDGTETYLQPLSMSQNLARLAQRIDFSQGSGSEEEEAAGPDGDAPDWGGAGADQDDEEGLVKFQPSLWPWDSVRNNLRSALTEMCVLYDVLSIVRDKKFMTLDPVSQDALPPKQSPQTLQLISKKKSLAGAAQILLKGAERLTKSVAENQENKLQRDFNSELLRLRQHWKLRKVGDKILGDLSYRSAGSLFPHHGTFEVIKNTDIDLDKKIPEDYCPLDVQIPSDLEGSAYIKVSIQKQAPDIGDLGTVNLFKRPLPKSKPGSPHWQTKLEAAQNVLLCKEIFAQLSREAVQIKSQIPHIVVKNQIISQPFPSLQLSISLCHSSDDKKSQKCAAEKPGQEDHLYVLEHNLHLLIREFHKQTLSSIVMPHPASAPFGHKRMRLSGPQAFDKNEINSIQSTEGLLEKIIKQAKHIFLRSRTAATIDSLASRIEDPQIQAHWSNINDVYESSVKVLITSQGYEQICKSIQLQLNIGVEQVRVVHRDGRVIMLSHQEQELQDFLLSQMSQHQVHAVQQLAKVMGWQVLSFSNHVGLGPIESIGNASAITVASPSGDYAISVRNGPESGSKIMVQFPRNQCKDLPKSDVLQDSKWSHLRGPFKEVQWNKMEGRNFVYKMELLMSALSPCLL

MED1 = MED1 (Mus musculus (endogenous in CH12 cells), UniProt Q925J9 1-1575)
Chain of MED1 (Q925J9 whole entry): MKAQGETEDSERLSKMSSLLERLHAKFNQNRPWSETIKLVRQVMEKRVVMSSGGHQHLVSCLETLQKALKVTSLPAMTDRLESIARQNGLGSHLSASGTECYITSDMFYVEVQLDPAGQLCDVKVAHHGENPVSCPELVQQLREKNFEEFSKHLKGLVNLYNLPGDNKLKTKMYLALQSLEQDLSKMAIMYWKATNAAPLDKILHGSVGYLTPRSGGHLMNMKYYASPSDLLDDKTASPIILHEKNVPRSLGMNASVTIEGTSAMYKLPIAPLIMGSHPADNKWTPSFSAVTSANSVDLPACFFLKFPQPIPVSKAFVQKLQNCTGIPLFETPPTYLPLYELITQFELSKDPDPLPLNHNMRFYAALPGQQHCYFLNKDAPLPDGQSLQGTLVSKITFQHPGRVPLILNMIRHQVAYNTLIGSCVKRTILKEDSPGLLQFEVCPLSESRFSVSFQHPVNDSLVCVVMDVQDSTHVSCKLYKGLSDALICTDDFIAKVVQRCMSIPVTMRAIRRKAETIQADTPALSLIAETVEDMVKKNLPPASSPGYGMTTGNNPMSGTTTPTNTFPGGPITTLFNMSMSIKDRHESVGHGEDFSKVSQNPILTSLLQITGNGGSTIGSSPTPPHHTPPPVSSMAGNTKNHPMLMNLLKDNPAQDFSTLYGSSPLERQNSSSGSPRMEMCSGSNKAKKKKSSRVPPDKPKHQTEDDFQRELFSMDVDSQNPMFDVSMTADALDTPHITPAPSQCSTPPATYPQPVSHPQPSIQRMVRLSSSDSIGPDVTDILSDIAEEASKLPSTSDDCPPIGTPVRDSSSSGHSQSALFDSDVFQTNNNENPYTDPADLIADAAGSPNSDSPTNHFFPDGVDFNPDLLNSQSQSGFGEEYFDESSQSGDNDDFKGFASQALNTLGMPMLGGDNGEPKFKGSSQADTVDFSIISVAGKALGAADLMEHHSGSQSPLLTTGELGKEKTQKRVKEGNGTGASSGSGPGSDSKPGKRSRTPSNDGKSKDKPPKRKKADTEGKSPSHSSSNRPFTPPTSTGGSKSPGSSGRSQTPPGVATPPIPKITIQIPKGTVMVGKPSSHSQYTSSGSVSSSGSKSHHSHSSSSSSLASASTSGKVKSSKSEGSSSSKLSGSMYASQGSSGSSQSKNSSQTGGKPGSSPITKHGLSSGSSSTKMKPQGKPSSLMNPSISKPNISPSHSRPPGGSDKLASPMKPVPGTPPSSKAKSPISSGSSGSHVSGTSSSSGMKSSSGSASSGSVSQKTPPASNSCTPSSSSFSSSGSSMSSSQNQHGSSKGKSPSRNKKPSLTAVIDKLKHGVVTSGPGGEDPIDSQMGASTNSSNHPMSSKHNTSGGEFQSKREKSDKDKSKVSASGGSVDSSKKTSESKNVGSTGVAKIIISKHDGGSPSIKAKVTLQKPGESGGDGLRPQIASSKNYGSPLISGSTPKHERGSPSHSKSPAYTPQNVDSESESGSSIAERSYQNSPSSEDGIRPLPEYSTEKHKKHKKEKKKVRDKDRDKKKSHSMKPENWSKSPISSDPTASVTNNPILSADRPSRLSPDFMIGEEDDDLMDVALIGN

MED4 = target: T4, MED4 (Mus musculus (endogenous in CH12 cells), UniProt Q9CQA5 1-270)
T4 sequence (looked up): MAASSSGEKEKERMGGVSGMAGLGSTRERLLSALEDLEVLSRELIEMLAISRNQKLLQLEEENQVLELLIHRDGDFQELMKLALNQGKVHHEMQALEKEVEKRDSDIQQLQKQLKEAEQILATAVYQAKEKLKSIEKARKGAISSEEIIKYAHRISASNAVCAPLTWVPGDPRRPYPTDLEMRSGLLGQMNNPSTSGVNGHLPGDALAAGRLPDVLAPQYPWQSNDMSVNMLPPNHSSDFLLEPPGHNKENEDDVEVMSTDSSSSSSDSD

MED22 = target: T5, MED22 (Mus musculus (endogenous in CH12 cells), UniProt Q62276 1-200)
T5 sequence (looked up): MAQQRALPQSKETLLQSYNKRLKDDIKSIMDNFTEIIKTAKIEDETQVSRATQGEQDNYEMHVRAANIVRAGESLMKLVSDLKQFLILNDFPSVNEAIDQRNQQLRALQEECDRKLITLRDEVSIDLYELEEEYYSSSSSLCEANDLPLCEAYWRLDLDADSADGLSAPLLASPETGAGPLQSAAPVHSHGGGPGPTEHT

MED28 = target: T6, MED28 (Mus musculus (endogenous in CH12 cells), UniProt Q920D3 1-178)
T6 sequence (looked up): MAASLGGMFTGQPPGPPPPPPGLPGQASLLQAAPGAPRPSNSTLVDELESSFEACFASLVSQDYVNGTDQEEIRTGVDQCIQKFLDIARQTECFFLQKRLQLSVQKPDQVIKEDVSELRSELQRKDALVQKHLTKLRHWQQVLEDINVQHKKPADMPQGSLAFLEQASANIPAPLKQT

MED30 = target: T7, MED30 (Mus musculus (endogenous in CH12 cells), UniProt Q9CQI9 1-178)
T7 sequence (looked up): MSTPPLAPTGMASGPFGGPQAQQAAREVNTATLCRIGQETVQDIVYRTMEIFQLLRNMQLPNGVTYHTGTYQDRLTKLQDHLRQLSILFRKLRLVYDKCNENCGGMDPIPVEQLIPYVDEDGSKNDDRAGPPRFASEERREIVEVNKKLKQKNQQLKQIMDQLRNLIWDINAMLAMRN

MED7 = target: T8, MED7 (Mus musculus (endogenous in CH12 cells), UniProt Q9CZB6 1-233)
T8 sequence (looked up): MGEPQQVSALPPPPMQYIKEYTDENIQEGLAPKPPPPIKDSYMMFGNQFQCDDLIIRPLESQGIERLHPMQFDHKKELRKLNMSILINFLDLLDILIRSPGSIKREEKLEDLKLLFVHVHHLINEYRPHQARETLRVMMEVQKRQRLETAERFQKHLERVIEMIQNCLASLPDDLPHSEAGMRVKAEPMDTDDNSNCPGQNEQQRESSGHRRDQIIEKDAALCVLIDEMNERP

binding result (MED20): binds
binding result (MED27): binds
binding result (MED17): binds
B1: MED18 (natural protein, Mus musculus (endogenous in CH12 cells), UniProt Q9CZ82 1-208, looked up)
chain: MEAPPVTMMPVTGGTINMMEYLLQGSVLDHSLESLIHRLRGLCDNMEPETFLDHEMVFLLKGQQASPFVLRARRSMDRAGAPWHLRYLGQPEMGDKNRHALVRNCVDIATSENLTDFLMEMGFRMDHEFVAKGHLFRKGIMKVVVYKIFRILVPGNTDSTEALSLSYLVELSVVAPAGQDMVSDDMRNFAEQLKPLVHLEKIDPKRLM

binding result (MED1): binds
binding result (MED4): binds
B2: MED9 (natural protein, Mus musculus (endogenous in CH12 cells), UniProt Q8VCS6 1-142, looked up)
chain: MASSGVAGGRQAEDTLQPPPELLPESKPPPPPQPLPVAALPPPAAPRPQSPAGAKEENYSFLPLVHNVIKCMDKDSPDLHQDLNALKTKFQELRKLIGTMPGIHVSPEQQQQQLHSLREQVRTKNELLQKYKSLCMFEIPKD

binding result (MED22): binds
binding result (MED28): binds
binding result (MED30): binds
B3: MED11 (natural protein, Mus musculus (endogenous in CH12 cells), UniProt Q9D8C6 1-117, looked up)
chain: MATYSLANERLRALEDIEREIGAILQNAGTAILELSKEKTNERLLDRQAAAFTTSVQHVEAELSAQIRYLTQVATGQPHEGSSYSSRKDCQMALKRVDYARLKISDVARTCEQMLEN

binding result (MED7): binds
B4: MED21 (natural protein, Mus musculus (endogenous in CH12 cells), UniProt Q9CQ39 1-144, looked up)
chain: MADRLTQLQDAVNSLADQFCNAIGVLQQCGPPASFSNIQTAINKDQPANPTEEYAQLFAALIARTAKDIDVLIDSLPSEESTAALQAASLYKLEEENHEAATCLEDVVYRGDMLLEKIQSALADIAQSQLKTRSVTHSHSLPDS
